From the supplement of paper PMC6755084

B1: F1*; the commonest letter at each place (parent)
chain: GAGACCGCAACTGAAAAGTTGTTATCACTTGTCGTAAGACACTTTGGATGGGTTGAAGTTCTGCACGTAGAAGCAAAAGGC

Variants of: B1
Assay: fraction ligated after 30 min (ligated reads / total reads); higher = more ligase activity
Settings: with F1*sub RNA substrate (template-directed ligation), 42 °C
Summary of the method: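 Oligo-pool templates of ligase ribozyme variants were PCR-amplified, T7-transcribed and gel-purified. Ligated and unligated bands were gel-separated, reverse transcribed with barcoded primers, and MiSeq-sequenced; core bases were filtered at quality ≥20. Fraction ligated per variant was ligated reads over total reads.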

Variant | fraction ligated
A36C G46C | 0.784
A36C G46T | 0.778
A36C G46A | 0.793
T35G A57G | 0.838
T35G A57T | 0.804
T35G A57C | 0.805
T35C A39C | 0.824
T35C A39G | 0.833
T35C A39T | 0.825
T35A C40G | 0.834
T35A C40T | 0.834
T35A C40A | 0.811
A36C G55T | 0.797
A36C G55A | 0.827
A36C G55C | 0.787
T35C G55C | 0.796
T35C G55A | 0.841
T35C G55T | 0.804
T35C T49A | 0.756
T35C T49G | 0.804
T35C T49C | 0.731
T35C C42T | 0.856
T35C C42G | 0.851
T35C C42A | 0.841

Variant | fraction ligated
A36G A37C | 0.835
T35C G47A | 0.811
T35C G47T | 0.36
T35C G47C | 0.213
T35G G38A | 0.847
T35G G38T | 0.845
T35G G38C | 0.865
G34C T49C | 0.0345
G34C T49G | 0.75
G34C T49A | 0.776
G34T T43G | 0.793
G34T T43C | 0.782
G34T T43A | 0.827
G34C A57T | 0.769
G34C A57G | 0.854
G34C A57C | 0.817
G34C G38T | 0.811
G34C G38C | 0.818
G34C G38A | 0.813
G34T A39C | 0.779
G34T A39T | 0.804
G34T A39G | 0.808
G34C T43G | 0.809
G34C T43C | 0.78

Variant | fraction ligated
G34C T43A | 0.843
G34C A48C | 0.756
G34C A48T | 0.781
G34C A48G | 0.753
T35C T43A | 0.839
T35C T43C | 0.777
T35C T43G | 0.797
G34C C40G | 0.818
G34C C40T | 0.803
G34C C40A | 0.805
T35C A36G | 0.847
T35C A36C | 0.8
T35C A36T | 0.839
A36C G38A | 0.846
A36C G38C | 0.838
A36C G38T | 0.838
T35A G47C | 0.221
T35A G47T | 0.398
T35A G47A | 0.811
T35G T49A | 0.748
T35G T49G | 0.778
T35G T49C | 0.727
T35G G55A | 0.819
T35G G55T | 0.809

Variant | fraction ligated
T35G G55C | 0.807
A36C A37C | 0.821
A36C A37G | 0.825
A36C A37T | 0.837
G34T T35G | 0.847
G34T T35A | 0.854
G34T T35C | 0.81
G34T C40G | 0.811
G34T C40A | 0.802
G34T C40T | 0.809
A36C A41G | 0.741
A36C A41T | 0.814
A36C A41C | 0.782
T35C T44C | 0.841
T35C T44G | 0.823
T35C T44A | 0.851
G34C A36G | 0.824
G34C A36T | 0.832
G34C A36C | 0.834
T35A G38T | 0.855
T35A G38C | 0.855
T35A G38A | 0.863
A36C C42A | 0.852
A36C C42T | 0.889

Variant | fraction ligated
A36C C42G | 0.839
T35G A37T | 0.846
T35G A37C | 0.868
T35G A37G | 0.847
T35G T44G | 0.851
T35G T44C | 0.854
T35G T44A | 0.843
A36C A56G | 0.794
A36C A56C | 0.804
A36C A56T | 0.804
T35C A48C | 0.766
T35C A48G | 0.805
T35C A48T | 0.792
T35A G46C | 0.799
T35A G46A | 0.837
T35A G46T | 0.783
T35G | 0.839
T35A | 0.836
T35C | 0.839
T35C G46A | 0.829
T35C G46C | 0.792
T35C G46T | 0.778
T35A G55T | 0.834
T35A G55A | 0.868

Variant | fraction ligated
T35A G55C | 0.819
G34T A36T | 0.827
G34T A36C | 0.843
G34T A36G | 0.834
T35G A36C | 0.824
T35G A36T | 0.851
T35G A36G | 0.845
G34T T44C | 0.811
G34T T44G | 0.842
G34T T44A | 0.792
T35A A48G | 0.801
T35A A48T | 0.8
T35A A48C | 0.752
T35C T45A | 0.748
T35C T45G | 0.399
T35C T45C | 0.783
T35G G46A | 0.809
T35G G46T | 0.784
T35G G46C | 0.803
T35G C40A | 0.838
T35G C40T | 0.851
T35G C40G | 0.837
T35C G50T | 0.753
T35C G50C | 0.437

Variant | fraction ligated
T35C G50A | 0.608
A36C G50T | 0.746
A36C G50C | 0.454
A36C G50A | 0.619
G34C A56T | 0.812
G34C A56G | 0.794
G34C A56C | 0.779
T35G A39T | 0.836
T35G A39G | 0.799
T35G A39C | 0.816
G34T T45A | 0.794
G34T T45G | 0.385
G34T T45C | 0.757
T35A A56C | 0.802
T35A A56T | 0.82
T35A A56G | 0.799
G34C C42T | 0.849
G34C C42A | 0.852
G34C C42G | 0.84
G34C G55A | 0.838
G34C G55T | 0.809
G34C G55C | 0.768
T35G C42G | 0.857
